Experimental data as given in patent US7977082B2, “Isomaltulose synthases, polynucleotides encoding them and uses therefor” (The University of Queensland of St. Lucia, priority 2001, dated 2011).

How the values were obtained:
[1] = tested on: Pseudomonas mesoacidophila MX-45 sucrose isomerase; conditions: trehalulose product; Nagai et al. 1994; cited from earlier work
[2] = tested on: Klebsiella sp. LX3 sucrose isomerase; conditions: isomaltulose product; Zhang et al. 2002; cited from earlier work
[3] = molecular target: T1, Klebsiella sp. 14S sucrose isomerase (SI), carboxy-terminal 6×His tag (SEQ ID NO: 52) (Klebsiella planticola, UniProt Q6XKX6); assay: Sucrose isomerase kinetics, purified SI from Klebsiella sp. 14S (isomaltulose production), with or without glucose/fructose; format: biochemical; conditions: sucrose, isomaltulose production, pH 6.0, 30° C., Lineweaver and Burk
T1 sequence (Q6XKX6 29-598): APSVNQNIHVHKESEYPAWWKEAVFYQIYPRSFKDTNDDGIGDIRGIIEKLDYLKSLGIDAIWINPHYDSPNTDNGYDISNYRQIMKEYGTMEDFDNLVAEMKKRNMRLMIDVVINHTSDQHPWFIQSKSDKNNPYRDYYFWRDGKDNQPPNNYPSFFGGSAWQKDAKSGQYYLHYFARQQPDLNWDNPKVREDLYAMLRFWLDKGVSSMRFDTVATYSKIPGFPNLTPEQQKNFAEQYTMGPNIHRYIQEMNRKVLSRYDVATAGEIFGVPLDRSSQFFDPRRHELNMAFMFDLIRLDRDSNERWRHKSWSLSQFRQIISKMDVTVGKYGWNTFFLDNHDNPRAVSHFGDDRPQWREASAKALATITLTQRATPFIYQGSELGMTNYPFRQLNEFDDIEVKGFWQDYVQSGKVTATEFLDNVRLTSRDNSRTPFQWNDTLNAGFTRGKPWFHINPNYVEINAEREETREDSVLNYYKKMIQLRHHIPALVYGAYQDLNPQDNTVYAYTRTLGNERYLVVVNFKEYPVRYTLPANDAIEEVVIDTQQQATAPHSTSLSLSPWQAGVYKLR
Experimental: The pET24b vector introduces a carboxy-terminal 6×His tag (SEQ ID NO: 52) on expressed proteins, which were purified by adsorption to Ni-NTA agarose (Qiagen) and elution with 25 mM NaH2PO4, 150 mM NaCl, 125 mM imidazole buffer (pH8.0) following the manufacturer's instructions. For storage, the eluted solution was diluted with 50% glycerol. The purity of SI proteins was tested by SDS-PAGE as described below. A batch procedure using Ni-NTA agarose in suspension yielded predominantly (80-95%) SI with a background of several other protein bands. A procedure using Ni-NTA agarose in adsorption columns yielded preparations containing a single protein band. […]
Enzyme activities were measured by incubating 5 μl of purified enzyme with 95 μL of sucrose solution at a final concentration of 584 mM in 0.1 M citrate/phosphate buffer (pH 6.0) at 30° C. Sugar profiles in the reaction mix were analysed at intervals by CE as described previously. […]
(§1) SI activity was measured by incubating the purified enzyme with different sucrose concentrations (3, 6, 15, 58, 146, 292, 584, 877, 1169 and 1461 mM) under standard assay conditions, and also with addition of glucose, fructose or both to a final concentration of 277 mM. Data were analyzed according to the method of Lineweaver and Burk (Voet and Voet, 1995) to calculate Km and Vmax values.

[4] = tested on: Serratia plymuthica ATCC 15928 sucrose isomerase; conditions: isomaltulose product; Véronèse & Perlot 1999; cited from earlier work
[5] = tested on: Klebsiella sp. sucrose isomerase; conditions: isomaltulose product; Park et al. 1996; cited from earlier work
[6] = molecular target: T2, Pantoea dispersa 68J sucrose isomerase (SI), mature, SEQ ID NO: 10, carboxy-terminal 6×His tag (SEQ ID NO: 52) (Pantoea dispersa, UniProt Q6XNK6); assay: Sucrose isomerase kinetics, purified SI from P. dispersa 68J (isomaltulose production), with or without glucose/fructose; format: biochemical; conditions: sucrose, isomaltulose production
T2 sequence (Q6XNK6 34-598): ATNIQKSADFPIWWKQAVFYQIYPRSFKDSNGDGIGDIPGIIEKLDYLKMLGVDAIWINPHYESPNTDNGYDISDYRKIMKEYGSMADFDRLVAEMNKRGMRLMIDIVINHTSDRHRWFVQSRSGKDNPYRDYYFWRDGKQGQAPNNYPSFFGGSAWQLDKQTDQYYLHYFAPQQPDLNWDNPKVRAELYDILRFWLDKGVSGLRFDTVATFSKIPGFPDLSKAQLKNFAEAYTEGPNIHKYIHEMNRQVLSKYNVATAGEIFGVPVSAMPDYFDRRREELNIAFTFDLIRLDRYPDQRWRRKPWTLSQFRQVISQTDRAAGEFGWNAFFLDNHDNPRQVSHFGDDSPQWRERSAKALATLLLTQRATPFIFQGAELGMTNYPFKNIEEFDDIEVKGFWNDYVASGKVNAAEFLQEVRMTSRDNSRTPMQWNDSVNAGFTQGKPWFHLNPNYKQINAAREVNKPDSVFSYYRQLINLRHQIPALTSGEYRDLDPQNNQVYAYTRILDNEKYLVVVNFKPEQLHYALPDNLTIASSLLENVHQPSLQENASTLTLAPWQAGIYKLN
Experimental: (§2) The pET24b vector introduces a carboxy-terminal 6×His tag (SEQ ID NO: 52) on expressed proteins, which were purified by adsorption to Ni-NTA agarose (Qiagen) and elution with 25 mM NaH2PO4, 150 mM NaCl, 125 mM imidazole buffer (pH8.0) following the manufacturer's instructions. For storage, the eluted solution was diluted with 50% glycerol. The purity of SI proteins was tested by SDS-PAGE as described below. A batch procedure using Ni-NTA agarose in suspension yielded predominantly (80-95%) SI with a background of several other protein bands. A procedure using Ni-NTA agarose in adsorption columns yielded preparations containing a single protein band. Unless otherwise specified, this is the form of the purified SI enzymes used for biochemical characterisation.
(§3) Enzyme activities were measured by incubating 5 μl of purified enzyme with 95 μL of sucrose solution at a final concentration of 584 mM in 0.1 M citrate/phosphate buffer (pH 6.0) at 30° C. Sugar profiles in the reaction mix were analysed at intervals by CE as described previously. One unit (U) of SI activity was defined as the amount of enzyme that could release 1 μmol of isomaltulose in one minute at the initial stage of the reaction.
as §1

[7] = Glucose and fructose tested as substrates of the purified enzyme; format: biochemical; conditions: 30° C., 30 minutes, pH 3.0 to 7.0
Experimental: (§4) Isomaltulase activity of the purified enzyme was investigated by incubation with 50 mM isomaltulose at 30° C. for 30 minutes at each of pH 3.0, 4.0, 5.0, 6.0 and 7.0. Glucose and fructose were tested as substrates under the same reaction conditions.

[8] = Isomaltulase activity of the purified enzyme; format: biochemical; conditions: 50 mM isomaltulose, 30° C., 30 minutes, pH 3.0 to 7.0
Experimental: as §4

[9] = Assay of isolated (purified) SI enzyme activity; format: biochemical
Experimental: as §2, §3
The enzymes were incubated with sucrose at different pH ranging from 2.0 to 10.6. The solution of pH 2.0 was buffered in 0.2 M KCl; pH 3.0 to pH 9.0 were in 0.1 M citrate/phosphate buffer; pH 10.0 to pH 10.6 were in 0.2 M glycine buffer. The effect of temperature from 10° C. to 70° C. was measured at pH 6.0. […]

[10] = Storage stability of purified SI proteins; format: physicochemical
Experimental: The purified fresh enzymes from SDS-PAGE had specific activities for isomaltulose production of: E. rhapontici: 35 U mg^−1 protein, Klebsiella sp.: 95 U mg^−1 protein and P. dispersa: 632 U mg^−1 protein. The purified SI from E. rhapontici lost function during overnight storage at −20° C. in elution buffer diluted with 50% glycerol. In contrast, the purified enzymes from 14S or P. dispersa retained 100% of the fresh enzyme efficiency for isomaltulose production after 6-month storage at −20° C., or 60% after 15-day storage at room temperature in the same buffer. Because of instability, the E. rhapontici SI was not characterised further in purified form. Cheetham et al., (1984) found substantial differences between E. rhapontici strains for SI stability in immobilized cells, and the enzyme from strain NCPPB 1578 was stable in purified form (Cheetham, 1984).
as §2

[11] = Conversion of sucrose into isomaltulose by E. coli cells expressing cloned SI genes; format: cell-based
Experimental: The three sucrose isomerase genes in the pCR®2.1 vector were cut and cloned into pGEM®-3Zf(+) then into pET 24b vector (Novagen) for expression in E. coli BL21(DE3) strain. Five mL LB medium with 50 μg/mL kanamycin was used for the BL21(DE3) cell culture. Fifteen cultures per construct were set up initially. Cells were grown at 37° C. at 225 rpm shaking. Six to ten cultures per construct, with OD600 1.000±0.005, were selected for further induction. After 0.5 mL was sampled from each culture, IPTG was added to the culture to a final concentration of 1.0 mM. Incubation of the cultures was continued for another 3 hours. The induced cultures only with OD600 1.750±0.005 were further selected for sucrose conversion analysis and protein measurement, allowing analysis of three replicate cultures per construct. From each of the selected IPTG-induced cultures, 1.5 mL was sampled for protein quantification, 0.5 mL for protein SDS-PAGE, 1.0 mL for quantification of conversion efficiency from sucrose into isomaltulose.
The 1.0 mL culture was centrifuged, then resuspended in citrate/phosphate (pH 6.0) buffered 50% sucrose solution and assayed for isomaltulose conversion by CE analysis as described above. Conversion ratio was calculated by sucrose peak area and isomaltulose peak area normalised against standards of known concentration, using the software of Beckman P/ACE 5000 Series C.E. System.
Fifteen cultures per construct were set up in 5 mL LB medium (Sambrook and Russell, 2001) with 50 μg/mL kanamycin in a 30 mL universal tube. Cells were grown at 37° C. at 225 rpm shaking. Six to ten cultures per construct, with OD600=1.00 were selected for further induction. After 0.5 mL was sampled from each culture, IPTG was added to a final concentration of 0.5 mM and incubation of the cultures was continued for another 3 h at 28° C. This allowed selection of three replicate cultures per construct with the same OD600 for sucrose conversion analysis and protein measurement. From each of the selected cultures, 1.5 mL was sampled for protein quantification, 0.5 mL for protein SDS-PAGE, and 1.0 mL for quantification of conversion efficiency from sucrose into isomaltulose. For SI protein purification experiment, the culture volume was scaled up to 25 mL in a 250 mL flask.
The 1.0 mL culture sample was centrifuged at 12,000×g for 1 min, then resuspended in 5 mL of 0.1 M citrate/phosphate (pH 6.0) buffered 50% sucrose solution and incubated for 4 h at 37° C. with 225 rpm shaking. Conversion ratio was calculated from sucrose and isomaltulose peak areas normalised against standards of known concentration, using a Beckman P/ACE 5000 CE as described previously herein.

[12] = E. coli, pET 24b, same expression conditions

Question: What does the source list for `OC[C@H]1O[C@@](CO)(O[C@H]2O[C@H](CO)[C@@H](O)[C@H](O)[C@H]2O)[C@@H](O)[C@@H]1O` [sucrose, α-D-glucosyl-1,2-D-fructose]?
Answer: Km [1]: 19.2 mM; Km [2]: 54.6 mM; Vmax [3]: 100 U mg^−1; Km [4]: 65 mM; Vmax [4]: 120 U mg^−1; Vmax [5]: 110 U mg^−1; Vmax [6]: 637 μmoles isomaltulose/mg protein/min; Vmax ([6]; pH 6.0, 30° C., Lineweaver and Burk): 637 U mg^−1

B1: P. dispersa SI: sucrose isomerase cloned from bacterial isolate 68J, SEQ ID NO: 8, mature polypeptide SEQ ID NO: 10 (protein)
chain: MFLNGFKTVIALTMASSFYLAASPLTKPSTPIAATNIQKSADFPIWWKQAVFYQIYPRSFKDSNGDGIGDIPGIIEKLDYLKMLGVDAIWINPHYESPNTDNGYDISDYRKIMKEYGSMADFDRLVAEMNKRGMRLMIDIVINHTSDRHRWFVQSRSGKDNPYRDYYFWRDGKQGQAPNNYPSFFGGSAWQLDKQTDQYYLHYFAPQQPDLNWDNPKVRAELYDILRFWLDKGVSGLRFDTVATFSKIPGFPDLSKAQLKNFAEAYTEGPNIHKYIHEMNRQVLSKYNVATAGEIFGVPVSAMPDYFDRRREELNIAFTFDLIRLDRYPDQRWRRKPWTLSQFRQVISQTDRAAGEFGWNAFFLDNHDNPRQVSHFGDDSPQWRERSAKALATLLLTQRATPFIFQGAELGMTNYPFKNIEEFDDIEVKGFWNDYVASGKVNAAEFLQEVRMTSRDNSRTPMQWNDSVNAGFTQGKPWFHLNPNYKQINAARXVNKPDSVFSYYRQLINLRHQIPALTSGEYRDLDPQNNQVYAYTRILDNEKYLVVVNFKPEQLHYALPDNLTIASSLLENVHQPSLQENASTLTLAPWQAGIYKLN
modifications: not fully specified; X: residue not identified in the source
Question: With B1 as the molecule, how does the “product from glucose and fructose as substrates” value [7] read?
Answer: Its value is “no product was detected”.

Question: What about the hydrolysis of isomaltulose [8] of the same molecule?
Answer: Its hydrolysis of isomaltulose is “did not hydrolyse isomaltulose”.

Question: What about the “monosaccharides, share of the products” value ([9]; from pH 4 to 8) of the same molecule?
Answer: The value was “less than 20%”.

Question: And the “activity at 10° C., of activity at optimal temperature” value ([9]; purified SI)?
Answer: Its value is 15%.

Question: And the “activity at 60° C.” value ([9]; purified SI)?
Answer: The value was “still active”.

Question: And the “isomaltulose production at pH 3 and pH 8” value ([9]; purified SI)?
Answer: The value was “some isomaltulose was still produced”.

Question: What about the “optimal pH for isomaltulose production” value ([9]; purified SI) of the same molecule?
Answer: Its value is 5.

Question: What about the “time until all sucrose was converted” value ([9]; purified SI) of the same molecule?
Answer: The value was ≤ 45 min.

Question: And the “sucrose converted to isomaltulose (of consumed sucrose)” value ([9]; purified SI, complete conversion, remainder glucose and fructose)?
Answer: Its value is 91%.

Question: What about the “optimal temperature for isomaltulose production” value ([9]; purified SI, pH 6.0) of the same molecule?
Answer: The value was 37 °C.

Question: And the “specific activity for isomaltulose production” value ([9]; purified fresh His-tagged enzymes)?
Answer: The value was 632 U mg^−1 protein.

Question: What about the “fresh enzyme efficiency for isomaltulose production retained” value ([10]; 6-month storage at −20° C., elution buffer with 50% glycerol) of the same molecule?
Answer: Its value is 100%.

Question: And the “fresh enzyme efficiency for isomaltulose production retained” value ([10]; 15-day storage at room temperature, same buffer)?
Answer: Its value is 60%.

Question: What about the “conversion efficiency from sucrose to isomaltulose, times that of the 14S (Klebsiella sp.) gene product/clone” value [11, 12] of the same molecule?
Answer: The value was 18 times.

Question: And the “conversion efficiency from sucrose to isomaltulose, times that of the Erwinia rhapontici gene product/clone” value [11, 12]?
Answer: The value was 10 times.

Question: What about the “proportions of glucose and fructose generated” value ([11]; compared with 14S (Klebsiella sp.) and Erwinia rhapontici SIs) of the same molecule?
Answer: The value was “smaller proportions of glucose and fructose”.

Question: And the “efficiency of the soluble enzyme, times that of the Erwinia and Klebsiella enzymes” value ([11]; intact cell assay, estimated)?
Answer: Its value is 6-38 times.
